Laboratory results: patent US20220372130A1 (MITSUBISHI TANABE PHARMA, published 2022)
Changes are numbered by the printed parent chain.

T1: human IL-33 protein (residue 112 to residue 270) (ATGen, ILC070) (human, UniProt O95760 112-270)
T1 construct: Bought protein (ATGen, ILC070); also called IL-33 (residue 112 to residue 270)
T1 sequence: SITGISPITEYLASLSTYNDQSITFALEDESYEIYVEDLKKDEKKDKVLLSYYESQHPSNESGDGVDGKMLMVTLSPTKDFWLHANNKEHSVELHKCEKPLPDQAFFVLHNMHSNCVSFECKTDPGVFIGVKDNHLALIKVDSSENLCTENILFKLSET

B1: A10-1C04 (antibody, human IgG1, lambda, V domains shown)
VH: EVQLLESGGGLVQPGGSLRLSCAASGFTFSDYYMNWVRQAPGKGLEWVSSISRYSSYIYYADSVKGRFTISRDNSKNTLYLQMNSLRAEDTAVYYCARDIGGMDVWGQGTLVTVSS
VL: QSVLTQPPSASGTPGQRVTISCTGSSSNIGAVYDVHWYQQLPGTAPKLLIYRNNQRPSGVPDRFSGSKSGTSASLAISGLRSEDEADYYCQTYDSSRWVFGGGTKLTVLG
notes: Prepared with recombinant CHO cells; constant region said to be preferably human IgG1; also called human IL-33 antibody; human anti-IL-33 monoclonal antibody
B2: A25-2C02 (antibody, human IgG1, lambda, V domains shown)
VH: EVQLLESGGGLVQPGGSLRLSCAASGFTFSNYYMHWVRQAPGKGLEWVSSISARSSYIYYADSVKGRFTISRDNSKNTLYLQMNSLRAEDTAVYYCARLATRNNAFDIWGQGTLVTVSS
VL: QSVLTQPPSASGTPGQRVTISCSGSSSNIGRNAVNWYQQLPGTAPKLLIYASNMRVSGVPDRFSGSKSGTSASLAISGLRSEDEADYYCWAWDDSQKVGVFGGGTKLTVLG
notes: Prepared with recombinant CHO cells; constant region said to be preferably human IgG1; also called A25-2CO2; human IL-33 antibody
B3: A23-1A05 (antibody, human IgG1, lambda, V domains shown)
VH: B2 VH with S56R, I58H, N103H
VL: B2 VL with R31N, N35S, S57I, W90G, V98A, G99L
notes: as for B1
B4: A25-3H04 (antibody, human IgG1, lambda, V domains shown)
VH: B2 VH with N31R, R54Q, Y57H, K65E, N103Q
VL: B2 VL with V56R, W90S, G99V
notes: as for B1
B5: A26-1F02 (antibody, human IgG1, lambda, V domains shown)
VH: B2 VH with I58L, N103H, N104V
VL: B2 VL with R31N, V56R, S57P, W90E, V98A, G99V
notes: as for B1

These binders were tested against T1, human IL-33 protein (residue 112 to …) (assay: KinExA).
Procedure: Five types of human IL-33 antibodies (A10-1C04, A23-1A05, A25-2CO2, A25-3H04 and A26-1F02) along with mouse sST2-Fc, which is a fusion protein of mouse ST2 and human IgG1 constant region, were prepared with recombinant CHO cells (WO 2015/099175).

Row | Kd [pM] | Binder
1 | 100 | B1
2 | 0.7 | B2
3 | 195 | B3
4 | 7.7 | B4
5 | 5.3 | B5
